The assay concerns the target GFP-tagged Fab1p (yeast) [yeast]. Put plainly: co-immunoprecipitation (IP: Fab1p-GFP), densitometry. Conditions: Bound fraction; parent: 1.

Turning to “myc-tagged Fig4p (wildtype, yeast) mutant I59T [yeast] / GFP-tagged Fab1p (yeast) [yeast] chain 1 I59T”, the ratio to parent amounted to 0.4.

The record behind these values is paper PMC3107197.
